Source: paper PMC4211736
Where “and” joins values, the source holds several entries; their conditions need not be identical. Identical values can stand only once.

Assays:
recombinant WT-C100Flag = assay: SDS-PAGE, Coomassie stain and Western blot (SDS-stable multimers); recombinant protein run on 4-12% Bis-Tris gels; monomer, dimer and trimer bands cut out, eluted in 150 mM sodium citrate pH 6.8 and rerun; Coomassie stain and blot (6E10, Ab5)
recombinant 3xK-C100Flag = assay: as above
G29K/A30K(3xK)-APP695wt = assay: SDS-PAGE and Western blot (SDS-stable dimer); CHO cells lysed in RIPA buffer (0.1% SDS); 3-8% Tris-Acetate gel; blot probed with anti-APP C-terminal antibody A8717

recombinant WT-C100Flag, sequence (P05067 18-701): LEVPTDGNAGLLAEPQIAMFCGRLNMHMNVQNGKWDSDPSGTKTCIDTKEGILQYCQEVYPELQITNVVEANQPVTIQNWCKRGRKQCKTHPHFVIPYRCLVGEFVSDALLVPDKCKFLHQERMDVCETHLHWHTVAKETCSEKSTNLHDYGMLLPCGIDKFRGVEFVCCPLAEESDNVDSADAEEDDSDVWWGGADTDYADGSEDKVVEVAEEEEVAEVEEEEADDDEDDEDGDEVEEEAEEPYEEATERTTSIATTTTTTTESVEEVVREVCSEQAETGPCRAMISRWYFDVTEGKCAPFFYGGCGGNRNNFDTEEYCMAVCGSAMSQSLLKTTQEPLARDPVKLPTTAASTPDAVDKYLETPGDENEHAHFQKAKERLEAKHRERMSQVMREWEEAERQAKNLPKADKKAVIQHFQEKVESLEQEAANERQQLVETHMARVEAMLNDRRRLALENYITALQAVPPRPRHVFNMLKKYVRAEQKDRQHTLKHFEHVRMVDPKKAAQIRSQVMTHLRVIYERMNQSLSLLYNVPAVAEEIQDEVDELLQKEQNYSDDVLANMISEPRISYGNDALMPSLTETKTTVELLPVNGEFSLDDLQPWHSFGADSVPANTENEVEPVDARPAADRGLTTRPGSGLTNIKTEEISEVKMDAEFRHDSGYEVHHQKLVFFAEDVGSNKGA

With “recombinant WT-C100Flag (domain or fragment)” as the substance, how does the stoichiometry N (recombinant WT-C100Flag) read?
Its stoichiometry N is 2 and 3.

With “recombinant 3xK-C100Flag (domain or fragment)” as the substance, how does the stoichiometry N (recombinant 3xK-C100Flag) read?
The stoichiometry N was 2 and 3.

Which stoichiometry N (G29K/A30K(3xK)-APP695wt) does the source give for “G29K/A30K(3xK)-APP695wt (natural protein)” here?
The stoichiometry N was 2.
